From patent publication US20240409634A1 (Janssen / Centocor, published 2024)

B1: scFv-VHH bispecific molecule JL6 x 5D3 (scFv (VL-L-VH)-L-VHH with C-tag) (bispecific antibody)
chain: QSVLTQPPSASGTPGQRVTISCSGSSSNIGSNPVNWYQQLPGTAPKLLIYSNNQRPSGVPDRFSGSKSGTSASLAISGLQSEDEADYFCAAWDDSLNGPVFGGGTKLTVLGGSEGKSSGSGSESKSTGGSQVQLQESGPGLVKPSETLSLTCTVSGGSISSYYWGWIRQPPGKGLEWIGYIYYSGSTNYNPSLKSRVTISVDTSKNQFSLKLSSVTAADTAVYYCARMWEILGFDPWGQGTLVTVSSGGGGSEVQLVESGGGLVQAGGSLRLSCAASGRPFSNYAMGWFRQAPGKEREFVTVISWSGGSTYYADSVKGRFTISRDNAKNTVYLQMNSLKPEDTAVYYCAAQFSGASTVVAGTALDYDYWGQGTRVTVSSAAAEPEA
B2: scFv-VHH bispecific molecule JL4 x 5D3 (scFv (VL-L-VH)-L-VHH with C-tag) (bispecific antibody)
chain: DVVMTQSPLSLPVTLGQPASISCRSSQSLVYSDGNTYLNWFQQRPGQSPRRLIYKVSTRDSGVPDRFSGSGSGTDFTLKISRVEAEDVAVYYCLQGTHWPWTFGQGTKVEIKGGSEGKSSGSGSESKSTGGSQVQLVESGGGLVQPGGSLRLSCAASGITFSNYWMSWVRQAPGKGLEWVASIKRDGSDKYYVDSVKGRFTISRDNAKNSLSLQMHSLRAEDTAVYYCAKGEFDYWGQGTLVTVSSGGGGSEVQLVESGGGLVQAGGSLRLSCAASGRPFSNYAMGWFRQAPGKEREFVTVISWSGGSTYYADSVKGRFTISRDNAKNTVYLQMNSLKPEDTAVYYCAAQFSGASTVVAGTALDYDYWGQGTRVTVSSAAAEPEA
B3: scFv-VHH bispecific molecule JL2 x 5D3 (scFv (VL-L-VH)-L-VHH with C-tag) (bispecific antibody)
chain: DIVMTQSPLSLPVTPGEPASISCRSSQSLLHSDGYNYLDWYLQKSGQSPQLLIYLGSYRASGVPDRFSGSGSGTDFTLKISRVEAEDVGIYYCMQVLQTPWTFGQGTKVEIKGGSEGKSSGSGSESKSTGGSEVQLVESGGGLVQPGGSLRLSCVVSGFTFSSYWMTWVRQAPGKGLEWVANIKQDGSERYYVDSVKGRFTISRDSAKNSLYLQMNSLRAEDTAVYYCAREVGYNWNQGGYFDYWGQGTLVTVSSGGGGSEVQLVESGGGLVQAGGSLRLSCAASGRPFSNYAMGWFRQAPGKEREFVTVISWSGGSTYYADSVKGRFTISRDNAKNTVYLQMNSLKPEDTAVYYCAAQFSGASTVVAGTALDYDYWGQGTRVTVSSAAAEPEA
B4: scFv-VHH bispecific molecule JL1 x 6H4 (scFv (VL-L-VH)-L-VHH with C-tag) (bispecific antibody)
chain: DIVMTQSPLSLPVTPGEPASISCKSSQSLLFSNGYKFLDWYLQRPGQSPQLLIYLGSYRASGVPDRFSGSGSGTDFTLKISRVEAEDVGLYYCMQALQTPPTFGGGTKVEIKGGSEGKSSGSGSESKSTGGSEVQLVESGGGLVQPGGSLKVSCEASGFTFSVSAIHWVRQASGKGLEWIGRIRSKGNSYATAYAASVKGRFTISRDDSKNTAYLQMDSLKTEDTAVYYCTRHNDKWNYYGLDVWGQGTTVTVSSGGGGSEVQLVESGGGLVQAGGSLRLSCAASGRPFSNYGMGWFRQAPGKKREFVAGISWSGGSTDYADSVKGRFTISRDNAKNTVYLQMNSLKPEDTAVYYCAAVFSGAETAYYPSDDYDYWGQGTQVTVSSAAAEPEA
B5: scFv-VHH bispecific molecule JL3 x 6H4 (scFv (VL-L-VH)-L-VHH with C-tag) (bispecific antibody)
chain: QSVLTQPPSASGTPGQRVTISCSGSSSNIGSNIVNWYQQFPGTAPKLLLYSDNQRPSGVPDRFSGSKSGTSASLAISGLQSEDEADYYCAAWDDSLNGPVFGTGTKVTVLGGSEGKSSGSGSESKSTGGSQVQLQESGPGLVKPSETLSLTCSVSGGSIRNYYWSWIRQSAGKELEWFGHIFSTGHINYDSSLKSRVTMSVDTSNNQFSLKLRSVTAADTAVYYCARDNGAALFDFWGQGTLVTVSSGGGGSEVQLVESGGGLVQAGGSLRLSCAASGRPFSNYGMGWFRQAPGKKREFVAGISWSGGSTDYADSVKGRFTISRDNAKNTVYLQMNSLKPEDTAVYYCAAVFSGAETAYYPSDDYDYWGQGTQVTVSSAAAEPEA
B6: scFv-VHH bispecific molecule JL1 x 5D3 (scFv (VL-L-VH)-L-VHH with C-tag) (bispecific antibody)
chain: DIVMTQSPLSLPVTPGEPASISCKSSQSLLFSNGYKFLDWYLQRPGQSPQLLIYLGSYRASGVPDRFSGSGSGTDFTLKISRVEAEDVGLYYCMQALQTPPTFGGGTKVEIKGGSEGKSSGSGSESKSTGGSEVQLVESGGGLVQPGGSLKVSCEASGFTFSVSAIHWVRQASGKGLEWIGRIRSKGNSYATAYAASVKGRFTISRDDSKNTAYLQMDSLKTEDTAVYYCTRHNDKWNYYGLDVWGQGTTVTVSSGGGGSEVQLVESGGGLVQAGGSLRLSCAASGRPFSNYAMGWFRQAPGKEREFVTVISWSGGSTYYADSVKGRFTISRDNAKNTVYLQMNSLKPEDTAVYYCAAQFSGASTVVAGTALDYDYWGQGTRVTVSSAAAEPEA
B7: scFv-VHH bispecific molecule JL3 x 5D3 (scFv (VL-L-VH)-L-VHH with C-tag) (bispecific antibody)
chain: QSVLTQPPSASGTPGQRVTISCSGSSSNIGSNIVNWYQQFPGTAPKLLLYSDNQRPSGVPDRFSGSKSGTSASLAISGLQSEDEADYYCAAWDDSLNGPVFGTGTKVTVLGGSEGKSSGSGSESKSTGGSQVQLQESGPGLVKPSETLSLTCSVSGGSIRNYYWSWIRQSAGKELEWFGHIFSTGHINYDSSLKSRVTMSVDTSNNQFSLKLRSVTAADTAVYYCARDNGAALFDFWGQGTLVTVSSGGGGSEVQLVESGGGLVQAGGSLRLSCAASGRPFSNYAMGWFRQAPGKEREFVTVISWSGGSTYYADSVKGRFTISRDNAKNTVYLQMNSLKPEDTAVYYCAAQFSGASTVVAGTALDYDYWGQGTRVTVSSAAAEPEA
B8: scFv-VHH bispecific molecule JL5 x 6H4 (scFv (VL-L-VH)-L-VHH with C-tag) (bispecific antibody)
chain: QSVLTQPPSASGTPGQRVTISCSGSSSNIGSNIVNWYQQFPGTAPKLLIYSNNQRPSGVPDRVSGSKSGTSASLAISGLQSEDEADYYCAAWDDSLNGPVFGPGTKVTVLGGSEGKSSGSGSESKSTGGSQVQLQESGPGLVKPSETLSLTCSVSGASIRNYYWSWIRQTAGKGLEWLGHIYSTGNIHYNPSLKSRVTMSVDTSNNQFSLKLRSVTAADTAVYYCARDNGAALFDYWGQGTLVTVSSGGGGSEVQLVESGGGLVQAGGSLRLSCAASGRPFSNYGMGWFRQAPGKKREFVAGISWSGGSTDYADSVKGRFTISRDNAKNTVYLQMNSLKPEDTAVYYCAAVFSGAETAYYPSDDYDYWGQGTQVTVSSAAAEPEA
B9: scFv-VHH bispecific molecule JL4 x 6H4 (scFv (VL-L-VH)-L-VHH with C-tag) (bispecific antibody)
chain: DVVMTQSPLSLPVTLGQPASISCRSSQSLVYSDGNTYLNWFQQRPGQSPRRLIYKVSTRDSGVPDRFSGSGSGTDFTLKISRVEAEDVAVYYCLQGTHWPWTFGQGTKVEIKGGSEGKSSGSGSESKSTGGSQVQLVESGGGLVQPGGSLRLSCAASGITFSNYWMSWVRQAPGKGLEWVASIKRDGSDKYYVDSVKGRFTISRDNAKNSLSLQMHSLRAEDTAVYYCAKGEFDYWGQGTLVTVSSGGGGSEVQLVESGGGLVQAGGSLRLSCAASGRPFSNYGMGWFRQAPGKKREFVAGISWSGGSTDYADSVKGRFTISRDNAKNTVYLQMNSLKPEDTAVYYCAAVFSGAETAYYPSDDYDYWGQGTQVTVSSAAAEPEA
B10: scFv-VHH bispecific molecule JL6 x 6H4 (scFv (VL-L-VH)-L-VHH with C-tag) (bispecific antibody)
chain: QSVLTQPPSASGTPGQRVTISCSGSSSNIGSNPVNWYQQLPGTAPKLLIYSNNQRPSGVPDRFSGSKSGTSASLAISGLQSEDEADYFCAAWDDSLNGPVFGGGTKLTVLGGSEGKSSGSGSESKSTGGSQVQLQESGPGLVKPSETLSLTCTVSGGSISSYYWGWIRQPPGKGLEWIGYIYYSGSTNYNPSLKSRVTISVDTSKNQFSLKLSSVTAADTAVYYCARMWEILGFDPWGQGTLVTVSSGGGGSEVQLVESGGGLVQAGGSLRLSCAASGRPFSNYGMGWFRQAPGKKREFVAGISWSGGSTDYADSVKGRFTISRDNAKNTVYLQMNSLKPEDTAVYYCAAVFSGAETAYYPSDDYDYWGQGTQVTVSSAAAEPEA
B11: scFv-VHH bispecific molecule JL5 x 5D3 (scFv (VL-L-VH)-L-VHH with C-tag) (bispecific antibody)
chain: QSVLTQPPSASGTPGQRVTISCSGSSSNIGSNIVNWYQQFPGTAPKLLIYSNNQRPSGVPDRVSGSKSGTSASLAISGLQSEDEADYYCAAWDDSLNGPVFGPGTKVTVLGGSEGKSSGSGSESKSTGGSQVQLQESGPGLVKPSETLSLTCSVSGASIRNYYWSWIRQTAGKGLEWLGHIYSTGNIHYNPSLKSRVTMSVDTSNNQFSLKLRSVTAADTAVYYCARDNGAALFDYWGQGTLVTVSSGGGGSEVQLVESGGGLVQAGGSLRLSCAASGRPFSNYAMGWFRQAPGKEREFVTVISWSGGSTYYADSVKGRFTISRDNAKNTVYLQMNSLKPEDTAVYYCAAQFSGASTVVAGTALDYDYWGQGTRVTVSSAAAEPEA
B12: scFv-VHH bispecific molecule JL2 x 6H4 (scFv (VL-L-VH)-L-VHH with C-tag) (bispecific antibody)
chain: DIVMTQSPLSLPVTPGEPASISCRSSQSLLHSDGYNYLDWYLQKSGQSPQLLIYLGSYRASGVPDRFSGSGSGTDFTLKISRVEAEDVGIYYCMQVLQTPWTFGQGTKVEIKGGSEGKSSGSGSESKSTGGSEVQLVESGGGLVQPGGSLRLSCVVSGFTFSSYWMTWVRQAPGKGLEWVANIKQDGSERYYVDSVKGRFTISRDSAKNSLYLQMNSLRAEDTAVYYCAREVGYNWNQGGYFDYWGQGTLVTVSSGGGGSEVQLVESGGGLVQAGGSLRLSCAASGRPFSNYGMGWFRQAPGKKREFVAGISWSGGSTDYADSVKGRFTISRDNAKNTVYLQMNSLKPEDTAVYYCAAVFSGAETAYYPSDDYDYWGQGTQVTVSSAAAEPEA

Biological target: human CD33 on CD33-expressing THP-1 cells (human, UniProt P20138 18-364)
Experiment: cell-based or functional assay

Chain of human CD33 on CD33-expressing THP-1 cells (P20138 18-364): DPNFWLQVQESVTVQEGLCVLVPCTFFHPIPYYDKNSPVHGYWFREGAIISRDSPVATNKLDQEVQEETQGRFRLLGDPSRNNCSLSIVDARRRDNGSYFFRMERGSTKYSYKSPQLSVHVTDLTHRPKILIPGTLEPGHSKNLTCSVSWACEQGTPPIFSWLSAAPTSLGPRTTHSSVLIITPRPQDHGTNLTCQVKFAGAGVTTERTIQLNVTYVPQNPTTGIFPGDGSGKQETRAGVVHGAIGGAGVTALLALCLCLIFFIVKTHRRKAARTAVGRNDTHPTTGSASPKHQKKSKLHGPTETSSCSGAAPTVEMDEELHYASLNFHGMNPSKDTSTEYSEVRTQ

Binder	Cytotox EC50 (nM) Donor 104	Cytotox EC50 (nM) Donor 156
B1	0.0044 nM	0.0029 nM
B2	~0.027 nM	0.023 nM
B3	0.0027 nM	~0.0019 nM
B4	0.011 nM	0.0098 nM
B5	~0.00079 nM	~0.00099 nM
B6	~0.61 nM	~0.43 nM
B7	~0.0013 nM	~0.0008 nM
B8	~0.0013 nM	~0.0019 nM
B9	~0.0004 nM	~0.00035 nM
B10	0.0012 nM	0.0013 nM
B11	~0.00093 nM	~0.0007 nM
B12	~0.00097 nM	~0.00077 nM
